{"source": "patent US8344120B2", "about": "“Nucleic acid molecules encoding rage fusion proteins” (TransTech Pharma, Inc., priority 2006, dated 2013)", "molecules": {"B1": {"name": "TTP-4000: four domain RAGE fusion protein: human RAGE N-terminal sequence (to position 251) linked to human IgG Fc (γ1) without hinge; SEQ ID NO: 34/56 (protein)", "chain": "QNITARIGEPLVLKCKGAPKKPPQRLEWKLNTGRTEAWKVLSPQGGGPWDSVARVLPNGSLFLPAVGIQDEGIFRCQAMNRNGKETKSNYRVRVYQIPGKPEIVDSASELTAGVPNKVGTCVSEGSYPAGTLSWHLDGKPLVPNEKGVSVKEQTRRHPETGLFTLQSELMVTPARGGDPRPTFSCSFSPGLPRHRALRTAPIQPRVWEPVPLEEVQLVVEPEGGAVAPPSVFLFPPKPKDTLMISRTPEVTCVVVDVSHEDPEVKFNWYVDGVEVHNAKTKPREEQYNSTYRVVSVLTVLHQDWLNGKEYKCKVSNKALPAPIEKTISKAKGQPREPQVYTLPPSRDELTKNQVSLTCLVKGFYPSDIAVEWESNGQPENNYKTTPPVLDSDGSFFLYSKLTVDKSRWQQGNVFSCSVMHEALHNHYTQKSLSLSPGK"}}, "key": {"[1]": {"molecular_target": "T1, amyloid-beta (Abeta) (Homo sapiens, UniProt P05067)", "T1 construct": "Amyloid Beta (1-40) from Biosource; purchased Biosource", "T1 sequence (P05067 672-711 limits assumed)": "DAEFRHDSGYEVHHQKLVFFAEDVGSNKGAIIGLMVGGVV", "experiment": "In vitro ligand binding ELISA, immobilized amyloid-beta", "details": "ligand 5 micrograms per well; fusion protein at increasing dilutions, 37° C. one hour", "procedure": "For example, the RAGE fusion protein may be used in a binding assay to identify potential RAGE ligands. In one example embodiment of such a binding assay, a known RAGE ligand may coated onto a solid substrate (e.g., Maxisorb plates) at a concentration of about 5 micrograms per well, where each well contains a total volume of about 100 microliters (4). The plates may be incubated at 4° C. overnight to allow the ligand to absorb or bind to the substrate. Alternatively, shorter incubation periods at higher temperature (e.g., room temperature) may be used. […] The RAGE fusion protein bound to the immobilized ligand may be detected in a variety of ways. […] The bound complex may be detected by adding the alkaline phosphatase substrate, para-nitrophenylphosphate (PNPP), and measuring conversion of PNPP to para-nitrophenol (PNP) as an increase in absorbance at 405 nm. […] In the absence of ligand (i.e., coating with only BSA) there was no increase in absorbance. […] Binding was detected by the addition of an immunodetection complex containing a monoclonal mouse anti-human IgG1 diluted 1:11,000 to a final assay concentration (FAC) of 21 ng/100 μL, a biotinylated goat anti-mouse IgG diluted 1:500, to a FAC of […], and an avidin-linked alkaline phosphatase. […]"}, "[2]": {"test_system": "animal model of stroke", "experiment": "Animal model of stroke (ischemia/reperfusion)", "assay_type": "in vivo, mice", "details": "treated just prior to reperfusion", "procedure": "For example, the RAGE fusion proteins of the present invention may also be used to treat stroke. […] In this model, the […] of a mouse is ligated and then reperfused to form an infarct. To assess the efficacy of RAGE fusion proteins to treat or prevent stroke, mice were treated with sRAGE or TTP-4000 or control immunoglobulin just prior to reperfusion. […] TTP-4000 was also compared to sRAGE in a disease relevant animal model of stroke. In this model, the […] of a mouse was ligated for 1 hour followed by 23 hours of reperfusion at which point the mice were sacrificed and the area of the infarct in the brain was assessed. […] After the nylon suture had been in place for 1 hour, the animal was re-anesthetized, rectal temperature was recorded and the suture was removed and the incision closed. Infarct volume was determined by anesthetizing the animals with an intraperitoneal injection of sodium pentobarbital (50 mg/kg) and then removing the brains. […] The infarct area in each section was determined with a computer-assisted image analysis system, consisting of a Power Macintosh computer equipped with a Quick Capture frame grabber card, Hitachi CCD camera mounted on a camera stand. […] The images were captured and the total area of infarct was determined over the sections. […] Summing the infarct volumes of the sections calculated the total infarct volume. […]"}}}
{"molecule": "B1", "values": [{"measurement": "binding to immobilized amyloid-beta (increase in absorbance at 405 nm)", "setting": "[1]", "value": "specifically interact"}, {"measurement": "reduction in infarct volume compared to sRAGE", "setting": "[2]", "value": "significantly greater reduction in infarct volume"}]}
